Data: US20220363763A1 (ABL BIO, published 2022)

Molecular target: T1, human PD-L1 (construct not stated) (human, UniProt Q9NZQ7 19-239, limits assumed)
T1 construct: also called B7-H1 (PD-L1); PD-L1 protein
Experiment: SPR Biacore, affinity ranking

T1 sequence (Q9NZQ7 19-239 limits assumed): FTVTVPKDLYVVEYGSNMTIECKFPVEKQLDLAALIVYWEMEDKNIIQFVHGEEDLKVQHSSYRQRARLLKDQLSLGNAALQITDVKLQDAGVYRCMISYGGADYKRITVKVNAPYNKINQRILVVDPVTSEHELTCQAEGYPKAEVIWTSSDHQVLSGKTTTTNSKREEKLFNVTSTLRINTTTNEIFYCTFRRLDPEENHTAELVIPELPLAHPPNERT

Kd	koff	kon	Binder
1.36 nM	0.000276 s⁻¹	203000 M⁻¹ s⁻¹	A1 (antibody, V domains shown) VH: EVQLVESGGGLVQPGGSLRLSCAASGFTFSSYDMSWVRQAPGKSLEWVATISDAGGYIYYRDSVKGRFTISRDNAKNSLYLQMNSLRDEDTAVYICARELLHRYALDYWGQGTTVTVSS VL: DIQMTQSPSSLSASVGDRVTITCKASQDVTPAVAWYQQKPGKAPKLLIYSTSSRYTGVPSRFSGSGSGTDFTFTISSLQPEDIATYYCQQHYTTPLTFGQGTKLEIK
1.49 nM	0.000324 s⁻¹	218000 M⁻¹ s⁻¹	A3 (antibody, V domains shown) VH: EVQLVESGGGLVQPGGSLRLSCAASGFTFSSYDMSWVRQAPGKSLEWVATISDAGGYIYYRDSVKGRFTISRDNAKNSLYLQMNSLRDEDTAVYICAREFGKRYALDYWGQGTTVTVSS VL: DIQMTQSPSSLSASVGDRVTITCKASQDVTPAVAWYQQKPGKAPKLLIYSTSSRYTGVPSRFSGSGSGTDFTFTISSLQPEDIATYYCQQHSDAPLTFGQGTKLEIK
2.55 nM	0.000475 s⁻¹	187000 M⁻¹ s⁻¹	A2 (antibody, V domains shown) VH: EVQLVESGGGLVQPGGSLRLSCAASGFTFSSYDMSWVRQAPGKSLEWVATISDAGGYIYYRDSVKGRFTISRDNAKNSLYLQMNSLRDEDTAVYICARELRGRYALDYWGQGTTVTVSS VL: DIQMTQSPSSLSASVGDRVTITCKASQDVTPAVAWYQQKPGKAPKLLIYSTSSRYTGVPSRFSGSGSGTDFTFTISSLQPEDIATYYCQQHYTTPLTFGQGTKLEIK

Molecular target: T2, recombinant his-tag human LAG3-ECD protein (human, UniProt P18627 23-450)
T2 construct: extracellular domain; not shown: his tag
T2 sequence (looked up): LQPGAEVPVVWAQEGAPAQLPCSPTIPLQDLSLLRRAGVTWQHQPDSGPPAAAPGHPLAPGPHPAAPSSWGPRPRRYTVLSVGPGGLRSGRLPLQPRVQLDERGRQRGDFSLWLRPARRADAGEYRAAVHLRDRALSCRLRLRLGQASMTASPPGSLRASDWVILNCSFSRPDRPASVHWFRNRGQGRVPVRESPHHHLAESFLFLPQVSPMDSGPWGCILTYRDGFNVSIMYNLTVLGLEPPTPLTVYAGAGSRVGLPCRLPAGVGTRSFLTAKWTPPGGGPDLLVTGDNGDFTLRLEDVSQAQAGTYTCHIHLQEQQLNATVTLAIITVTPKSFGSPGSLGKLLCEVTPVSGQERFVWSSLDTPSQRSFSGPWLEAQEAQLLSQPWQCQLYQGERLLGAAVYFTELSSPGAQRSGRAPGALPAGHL
Experiment: SPR Biacore T200, antibody captured by anti-human Fc, LAG3-ECD-his injected
Protocol: The binding of the S20, S24, S27, S31, S87, S119, S120, S128, S136, S161 and T99 antibodies to recombinant his-tag human LAG3-ECD protein was examined by Biacore T200 using a capture method. Anti-LAG3 antibodies were captured using anti-human Fc antibody. The anti-human Fc antibody was coated on chip. Serial concentrations of his-tag human LAG3-ECD protein (0-4 nM) were injected over capture antibodies at the flow rate of 30 μl/min. The dissociation phase was 900 s or 550 s. The Biacore results for the anti-LAG3 antibodies have shown that these anti-LAG3 antibodies are high affinity binder to human LAG3.

Kd	koff	kon	Binder
0.892 nM	0.000553 s⁻¹	620000 M⁻¹ s⁻¹	NLAG3-HDB323-S161 (antibody, human IgG1, V domains shown, Short label tied by its unique suffix) VH: not shown VL: AIQLTQSPSSLSASVGDRVTITCRASEGISGWLAWYQQIPGKAPKLLIYAASSLETGVPSRFSGSGYGTDFTLTISSLQPEDFATYYCQQADSFPFTFGPGTKVEIKR
1.88 nM	0.00264 s⁻¹	1.4e+06 M⁻¹ s⁻¹	NLAG3-HDB169-S120 (antibody, human IgG1, V domains shown, Short label tied by its unique suffix) VH: QVQLVQSGAEVKKPGSSVKVSCKASGGTFSSYAISWVRQAPGQGLEWMGGIIPIFGTANYAQKFQGRVTITADESTSTAYMELSSLRSEDTAVYYCARSGDRYDFWSGYWGQGTLVTVSS VL: EIVLTQSPSSVSASVGDRVTITCRASRGISSWLAWYQQKPGKAPKLLIYAASTLQSGVPSRFSGSGSGTDFTLTISSLQPEDFATYYCQQAKSFPLTFGGGTKVEIKR
0.104 nM	8.27e-05 s⁻¹	798000 M⁻¹ s⁻¹	NLAG3-HDB169-S136 (antibody, human IgG1, V domains shown, Short label tied by its unique suffix) VH: QVQLVQSGAEVKKPGSSVKVSCKASGGTFSSYAISWVRQAPGQGLEWMGGIIPIFGTANYAQKFQGRVTITADESTSTAYMELSSLRSEDTAVYYCTRGQDSTWYSSFDYWGQGTLVTVSS VL: AIRMTQSPSSLSASVGDRVTITCRASQSISSYLNWYQQKPGKAPNLLIYAVSTLQSGVPSRFSGSGSGTVFTLTISSLQPEDFATYFCQQGNSFPLTFGGGTKVEIKR
6.73 nM	0.012 s⁻¹	1.79e+06 M⁻¹ s⁻¹	NLAG3-HDB169-S24 (antibody, human IgG1, V domains shown, Short label tied by its unique suffix) VH: QVQLVQSGAEVKKPGSSVKVSCKASGGTFSSYAISWVRQAPGQGLEWMGGIIPIFGTANYAQKFQGRVTITADESTSTAYMELSSLRSEDTAVYYCTREPHFDYWGQGTLVTVSS VL: EIVMTQSPSSLSASVGDRVTITCQASQDISNYLNWYQQKPGKAPKLLIYDASNLETGVPSRFSGSGSGTEFTLTISSLRPEDFATYFCQQADSFPITFGQGTRLEIKR
0.00251 nM	2.33e-06 s⁻¹	928000 M⁻¹ s⁻¹	NLAG3-HDB169-S87 (antibody, human IgG1, V domains shown, Short label tied by its unique suffix) VH: QVQLVQSGAEVKKPGSSVKVSCKASGGTFSSYAISWVRQAPGQGLEWMGGIIPIFGTANYAQKFQGRVTITADESTSTAYMELSSLRSEDTAVYYCAKDIRWYYGMDVWGQGTTVTVSS VL: DIVMTQSPSSVSAFVGDRVTITCRASQGVSSWLAWFQQKPGKAPKLLIYAASTLQSGVPSRFSGRGYGTEFTLTISSLQPEDLATYYCQQVKSFPLTFGGGTKVDIKR
